B1: MIAB168 (antibody, V domains shown)
VH: EVQLLESGGGLVQPGGSLRLSCAASGFTFSDFWMHWVRQAPGKGLEWISYISGDSGYTNYADSVKGRFTISRDNSKNTLYLQMNSLRAEDTAVYYCARDRPYYYYMDVWGKGTTVTVSS
VL: DIQMTQSPSSLSASVGDRVTITCRASQSVSRSLLWYQQKPGKAPKLLIYAASSLQSGVPSRFSGSGSGTDFTLTISSLQPEDFATYYCQQYKSYPVTFGQGTKVEIK
B2: MIAB172 (antibody, V domains shown)
VH: B1 VH with Y102T
VL: B1 VL with L34A
B3: MIAB134 (antibody, V domains shown)
VH: B1 VH with D31A
VL: B1 VL with L34A

Positions count from the first letter of the chain named.

Insulin, sequence (P01308 25-54, chain 1 of 2): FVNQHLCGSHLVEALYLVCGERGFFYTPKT
Insulin, sequence (P01308 90-110, chain 2 of 2): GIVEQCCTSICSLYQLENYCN

The assay has as its target Insulin. As to the kind of experiment: polyreactivity ELISA on insulin coat, 100 nM. For orientation: In an ELISA, binding on a coated surface is turned into a signal by an enzyme label.
In turn, B1 displayed an Insulin polyreactivity score of 8.35.
With B2 the figure was 3.79.
As for B3, the figure is 25.5.

Source of the values: patent US20240010722A1.
